Target: T1, EhDbr1 (RNA lariat debranching enzyme) (Entamoeba histolytica, UniProt C4M1P9 1-354)
T1 sequence: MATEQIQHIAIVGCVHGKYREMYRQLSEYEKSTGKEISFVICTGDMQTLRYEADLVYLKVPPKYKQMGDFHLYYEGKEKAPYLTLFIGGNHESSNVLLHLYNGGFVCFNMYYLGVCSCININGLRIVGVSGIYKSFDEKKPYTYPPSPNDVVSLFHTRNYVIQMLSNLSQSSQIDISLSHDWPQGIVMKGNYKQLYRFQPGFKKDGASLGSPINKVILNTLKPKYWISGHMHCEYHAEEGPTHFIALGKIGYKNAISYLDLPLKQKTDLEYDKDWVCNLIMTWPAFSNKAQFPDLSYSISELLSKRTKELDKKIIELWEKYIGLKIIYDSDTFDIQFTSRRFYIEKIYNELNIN
Test: X-ray crystallography

GUGUG (ssRNA, 5'-terminal phosphorothioate) [PS-bRNA-1 5' product (hydrolyzed 2'-5' fragment, 5'-PS-GUGUG-3')]: binds.

From publication PMC10308451
